The target in assay [1] is endogenous CNK (anti-CNK blot, no CNK construct transfected). Description: anti-V5 immunoprecipitation, immunoblot quantification. The settings on record: S2 cells; V5-KSR and Myc-MEK co-expressed; anti-CNK blot (band near 180 kDa); parent: 1.00.
Assay [2] has as its target CNK^CRIC Q84E (Flag-CNK^2–549 assumed). In words: GST pull-down, immunoblot quantification. To be noted: S2 cells, Flag-CNK2–549, V5-KSR, Myc-MEK, GST-HYP co-expressed, captured via GST-HYP, parent: 1.00.
The target of assay [3] is CNK^SAM R46F (Flag-CNK^2–549 assumed). In words: GST pull-down, immunoblot quantification. The settings on record: S2 cells, Flag-CNK2–549, V5-KSR, Myc-MEK, GST-HYP co-expressed, captured via GST-HYP, parent: 1.00. Background: A western blot detects proteins with antibodies after separation by electrophoresis.
Assay [4] has as its target CNK^SAM Y76R (Flag-CNK^2–549 assumed). Description: GST pull-down, immunoblot quantification. The settings on record: S2 cells, Flag-CNK2–549, V5-KSR, Myc-MEK, GST-HYP co-expressed, captured via GST-HYP, parent: 1.00.
Another assay concerns the target Flag-CNK^2–549 (UniProt Q7KNQ9). Description: GST pull-down, immunoblot quantification. The settings on record: S2 cells, Flag-CNK2–549, V5-KSR, Myc-MEK, GST-HYP co-expressed, captured via GST-HYP, parent: 1.00.
Assay [5] concerns the target CNK^CRIC N96E (Flag-CNK^2–549 assumed). Description: GST pull-down, immunoblot quantification. To be noted: S2 cells, Flag-CNK2–549, V5-KSR, Myc-MEK, GST-HYP co-expressed, captured via GST-HYP, parent: 1.00.
For another assay, the target named is T1, V5-KSR R913E, Q24171.
T1 chain: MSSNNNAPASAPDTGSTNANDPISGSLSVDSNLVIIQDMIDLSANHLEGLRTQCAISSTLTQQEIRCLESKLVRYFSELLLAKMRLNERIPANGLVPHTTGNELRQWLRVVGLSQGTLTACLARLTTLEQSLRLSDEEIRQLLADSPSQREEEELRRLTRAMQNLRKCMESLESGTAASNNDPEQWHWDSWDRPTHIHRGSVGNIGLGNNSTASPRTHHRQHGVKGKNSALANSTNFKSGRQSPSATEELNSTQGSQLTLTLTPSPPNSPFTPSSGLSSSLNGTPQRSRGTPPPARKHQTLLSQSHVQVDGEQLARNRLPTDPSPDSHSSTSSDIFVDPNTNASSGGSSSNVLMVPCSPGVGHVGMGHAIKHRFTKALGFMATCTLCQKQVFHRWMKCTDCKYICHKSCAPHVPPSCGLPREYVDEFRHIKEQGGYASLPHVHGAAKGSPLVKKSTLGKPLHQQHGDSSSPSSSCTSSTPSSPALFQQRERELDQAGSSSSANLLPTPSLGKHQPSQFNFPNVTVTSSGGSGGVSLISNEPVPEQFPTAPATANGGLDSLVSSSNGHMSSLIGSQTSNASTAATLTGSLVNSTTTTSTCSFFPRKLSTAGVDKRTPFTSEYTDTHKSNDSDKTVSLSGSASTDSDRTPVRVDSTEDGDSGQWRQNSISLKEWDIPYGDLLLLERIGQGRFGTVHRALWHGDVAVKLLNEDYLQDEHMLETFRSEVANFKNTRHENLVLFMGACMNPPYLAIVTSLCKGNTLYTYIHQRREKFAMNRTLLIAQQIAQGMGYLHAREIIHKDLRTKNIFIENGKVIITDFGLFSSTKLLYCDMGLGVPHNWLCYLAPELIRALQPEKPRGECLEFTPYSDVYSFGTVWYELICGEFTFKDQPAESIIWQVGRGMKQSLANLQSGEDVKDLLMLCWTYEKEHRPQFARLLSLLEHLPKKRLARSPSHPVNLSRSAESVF
In words: anti-V5 immunoprecipitation, immunoblot quantification. To be noted: chain shown with the change; S2 cells; V5-KSR and Myc-MEK co-expressed; anti-Myc (MEK) blot; parent: 1.00.

Flag-CNK^2–549, sequence (Q7KNQ9 entry or part of it): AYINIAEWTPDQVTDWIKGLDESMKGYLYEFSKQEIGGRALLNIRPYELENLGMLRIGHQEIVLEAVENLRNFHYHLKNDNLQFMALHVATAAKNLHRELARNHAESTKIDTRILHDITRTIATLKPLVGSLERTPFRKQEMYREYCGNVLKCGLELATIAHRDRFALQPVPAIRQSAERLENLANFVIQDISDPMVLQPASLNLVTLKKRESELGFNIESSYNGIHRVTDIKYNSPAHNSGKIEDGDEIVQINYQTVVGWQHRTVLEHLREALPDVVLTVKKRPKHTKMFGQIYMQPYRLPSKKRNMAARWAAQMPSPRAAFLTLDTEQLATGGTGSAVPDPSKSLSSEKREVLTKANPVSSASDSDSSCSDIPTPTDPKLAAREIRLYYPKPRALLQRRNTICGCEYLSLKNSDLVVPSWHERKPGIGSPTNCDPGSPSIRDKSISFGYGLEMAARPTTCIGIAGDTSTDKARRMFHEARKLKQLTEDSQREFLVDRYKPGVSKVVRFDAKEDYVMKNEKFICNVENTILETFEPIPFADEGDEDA

Regarding V5-KSR (from UniProt Q24171) K903D, the ratio to parent in assay [1] is 0.26. In the case of m6; m8 MEK:E323R; CNK:Q84E, the ratio to parent was 0.02 in assay [2] (anti-Myc (MEK) blot) and 0.05 in assay [2] (anti-V5 (KSR) blot). Regarding m5; m8 KSR:R913E; CNK:Q84E, the ratio to parent in assay [2] (anti-Myc (MEK) blot) is 0.1; in assay [2] (anti-V5 (KSR) blot), 0.13. In the case of m6; m8 MEK:E323R; CNK:R46F, the ratio to parent worked out at 0.2 in assay [3] (anti-Myc (MEK) blot) and 0.23 in assay [3] (anti-V5 (KSR) blot). As to m6; m8 MEK:E323R; CNK:Y76R, the ratio to parent in assay [4] (anti-Myc (MEK) blot) amounted to 0.06; in assay [4] (anti-V5 (KSR) blot) it was 0.09. For V5-KSR (from UniProt Q24171) Y925D, the ratio to parent in assay [1] was determined as 0.25.

Consider m5; m6 KSR:R913E; MEK:E323R, for which the ratio to parent in the assay with Flag-CNK^2–549 (anti-Myc (MEK) blot) and with Flag-CNK^2–549 (anti-V5 (KSR) blot) was 0.41 throughout. In the case of V5-KSR (from UniProt Q24171) E926R, the ratio to parent in assay [1] came to 1.12.

In the case of V5-KSR (from UniProt Q24171) W896R, in assay [1], the ratio to parent stood at 0.29. For m6; m8 MEK:E323R; CNK:N96E, the ratio to parent in assay [5] (anti-Myc (MEK) blot) came to 0.22; in assay [5] (anti-V5 (KSR) blot) it was 0.27. Turning to V5-KSR (from UniProt Q24171) M902D, in assay [1], the ratio to parent was found to be 0.13.

B1: m6; m5 MEK:E323R; KSR:R913E (protein)
chain: MSKNKLNLVLPPVNTEATVAAATVAPTPPFKTPSGTDTHSLLGKPKTSIDALTETLEGLDMGDTERKRIKMFLSQKEKIGELSDEDLEKLGELGSGNGGVVMKVRHTHTHLIMARKLIHLEVKPAIKKQILRELKVLHECNFPHIVGFYGAFYSDGEISICMEYMDGGSLDLILKRAGRIPESILGRITLAVLKGLSYLRDNHAIIHRDVKPSNILVNSSGEIKICDFGVSGQLIDSMANSFVGTRSYMSPERLQGTHYSVQSDIWSLGLSLVEMAIGMYPIPPPNTATLESIFADNAEESGQPTDEPRAMAIFELLDYIVNRPPPKLEHKIFSTEFKDFVDICLKKQPDERADLKTLLSHPWIRKAELEEVDISGWVCKTMDLPPSTPKRNTSPN
Take B1: in the assay with V5-KSR R913E, Q24171, the ratio to parent worked out at 1.01.

The values above are taken from publication PMC11257983 (2024).
